Residue numbers refer to the chain shown, from its start.
B1: 1H1 (VHH)
VHH: QVQLVQSGGGLVQPGGSLRLSCAASGFTFDDHAMSWVRQAPGKGLEWVSAISWNGHYTYYAESMKGRFAISRDNAKNTLYLQMNSLKSEDTAVYYCVKGWRGSYTRDRPFASWGQGTQV
notes: also called 41BB-targeting single domain antibody 1H1
B2: 1H4 (VHH)
VHH: QVQLVQSGGGLVQPGGSLRLSCVVSGFTFRSYAMSWVRQAPGKGLEWVSTINSGESSTKYADSVKGRFTISRDDAKNTLYLQMSDLKPEDTAVYFCAKHRGWSTVDDINYWGKGTQV
notes: also called 41BB-targeting single domain antibody 1H4
B3: 1G3 (VHH)
VHH: QVQLVQSGGGLVQPGGSLRLSCAASGFTFSSYAMSWVRQAPGKGLEWVSAIPAGDGSTKYADSVKGRFTISRDNAKNTVYLQMDSLKPEDTAVYFCAKSRGWSTVDDMDYWGKGTQV
notes: also called 41BB-targeting single domain antibody 1G3
B4: 4H04 (VHH)
VHH: QVQLQESGGGLVQAGDSLRLSCAASGWAFDNYGMAWFRQAPGKEREFIGRLAWNGGSTDYADSVKGRFTISRDNPKNTLYLQMNNLKPEDTAVYYCARQRSYSGYGIRTPQTYDYWGQGTQVT
notes: also called 4H4
B5: 4F5 (VHH)
VHH: B4 VHH with Q5V, E6Q, A14P, D16G, N85S, G104R, T109A
notes: also called 4F05
B6: 4E01 (VHH)
VHH: B4 VHH with E6Q, D30G, Q39R, A61V, E89D, G104R, G106D
notes: also called 4E1
B7: 1H8 (VHH)
VHH: EVQLVQSGGGLVQPGGSLRLSCAASGFTFSSYYMSWVRQAPGKGLEWVSTISTNTGGGSTYYAYADSVKGRFTISRDNAKNTLYLEMNSLKPEDTAQYYCVRTRWEGVYDYWGLGTQV
notes: also called 41BB-targeting single domain antibody 1H8
B8: D1 (VHH)
VHH: EVQPVQSGGGLVQAGESLRLSCAASATIFSNNAMGWYRQAPGKQRELVATITTGGFTNYRDSVKGRFDISRDNAKNTVYLQMNNLKPEDTAVYYCNVVLRYSRDYSYTTVKEYWGQGTQV
notes: also called 41BB-targeting single domain antibody D1
B9: RH3 (VHH)
VHH: QVQLQESGGGLVQPGGSLRLSCAVSGFSFSINAMGWYRQAPGKRREFLAAIDSGRNTVYAVSVKGRFTISRDNAKNTVYLQMNSLKPEDTAIYYCGLLKGNRVVSPSVAYWGQGTQVT
notes: also called RH03
B10: hzRH3v5-1 (VHH)
VHH: EVQLLESGGGEVQPGGSLRLSCAASGFSFSINAMGWYRQAPGKRREFVAAIESGRNTVYAESVKGRFTISRDNAKNTVYLQMSSLRAEDTAVYYCGLLKGNRVVSPSVAYWGQGTLVTVKP
B11: hzRH3v9 (VHH)
VHH: B10 VHH with R44G

Each binder was assayed against T1, recombinant human 41BB-mFc fusion protein (human, UniProt Q07011 24-186) (assay: ELISA, recombinant 41BB-mFc immobilized on Medisorp plate).
T1 construct: A fusion protein containing 41BB operably linked to a mouse Fc region
Procedure: Binding was assessed by ELISA wherein recombinant 41BB-mFc protein was immobilized on a Medisorp 96 well plate.
(§1) The 41BB-targeting single domain antibodies (sdAbs) referred to herein as 1G3 (SEQ ID NO: 432), 1H4 (SEQ ID NO: 436), 1H1 (SEQ ID NO: 440), 4H4 (SEQ ID NO: 16), 1H8 (SEQ ID NO: 444), 4F5 (SEQ ID NO: 23), and 4E1 (SEQ ID NO: 20) bind recombinant human 41BB (FIG. 2A), cynomolgus 41BB (FIG. 2B). The 41BB-targeting single domain antibodies (sdAbs) referred to herein as 4F5 (SEQ ID NO: 23), 4H04 (SEQ ID NO: 16), 4E01 (SEQ ID NO: 20), RH03 (SEQ ID NO: 25), and D1 (SEQ ID NO: 29) bind human 41BB expressed on the cell surface of CHO cells (FIG. 3). The 41BB-targeting sdAbs referred to herein as 4H04, RH03, and […]. For FIG. 2A, FIG. 2B, and FIG. 4, binding was assessed by ELISA wherein recombinant 41BB-mFc fusion protein (a fusion protein containing 41BB operably linked to a mouse Fc region) was immobilized on a Medisorp 96 well plate. For FIG. 3, binding was assessed by flow cytometry using 41BB expressing CHO cells, and the data is presented as median fluorescence intensity.
B1: binds.
B2: binds.
B3: binds.
B4: binds.
B5: binds.
B6: binds.
B7: binds.

These binders were tested against T2, human 41BB expressed on the cell surface (human, UniProt Q07011 24-255) (assay: flow cytometry on 41BB expressing CHO cells).
T2 construct: whole, on cells; also called human 41BB on CHO cells; human 41BB on 293freestyle cells
T2 sequence (Q07011 24-255): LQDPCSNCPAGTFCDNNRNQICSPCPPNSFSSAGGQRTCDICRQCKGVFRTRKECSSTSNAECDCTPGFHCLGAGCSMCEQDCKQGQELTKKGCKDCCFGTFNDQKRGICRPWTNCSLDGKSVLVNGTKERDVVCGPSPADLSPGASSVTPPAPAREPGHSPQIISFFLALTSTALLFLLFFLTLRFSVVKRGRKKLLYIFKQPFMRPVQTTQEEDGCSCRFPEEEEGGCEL
Text: as §1
B4: binds.
B5: binds.
B6: binds.
B8: binds.
B9: binds.

Each binder was assayed against T2, human 41BB expressed on the cell surface (assay: flow cytometry on 41BB expressing 293freestyle cells).
Procedure: The PDL1-41BB targeting fusion proteins of the disclosure include a humanized anti-41BB sequence. In the studies presented herein, the PDL1-41BB targeting fusion proteins of the disclosure include a humanized anti-41BB sequence such as hzRH3v5-1 (SEQ ID NO: 30) and/or hzRH3v9 (SEQ ID NO: 82) bind both human and cynomolgus 41BB (FIGS. 9A, 9B), including human 41BB and cynomolgus 41BB expressed on the surface of CHO cells (FIGS. 9C, 9D). Binding was assessed by flow cytometry on 41BB expressing 293freestyle cells.
B10: binds.
B11: binds.

Source: patent publication US20170198050A1 (INHIBRX, published 2017)
